In IntAct's records for PubMed 8670882:

What was measured:
[1] = target: T1, ste20_yeast STE20 (UniProt Q03497)
T1 sequence: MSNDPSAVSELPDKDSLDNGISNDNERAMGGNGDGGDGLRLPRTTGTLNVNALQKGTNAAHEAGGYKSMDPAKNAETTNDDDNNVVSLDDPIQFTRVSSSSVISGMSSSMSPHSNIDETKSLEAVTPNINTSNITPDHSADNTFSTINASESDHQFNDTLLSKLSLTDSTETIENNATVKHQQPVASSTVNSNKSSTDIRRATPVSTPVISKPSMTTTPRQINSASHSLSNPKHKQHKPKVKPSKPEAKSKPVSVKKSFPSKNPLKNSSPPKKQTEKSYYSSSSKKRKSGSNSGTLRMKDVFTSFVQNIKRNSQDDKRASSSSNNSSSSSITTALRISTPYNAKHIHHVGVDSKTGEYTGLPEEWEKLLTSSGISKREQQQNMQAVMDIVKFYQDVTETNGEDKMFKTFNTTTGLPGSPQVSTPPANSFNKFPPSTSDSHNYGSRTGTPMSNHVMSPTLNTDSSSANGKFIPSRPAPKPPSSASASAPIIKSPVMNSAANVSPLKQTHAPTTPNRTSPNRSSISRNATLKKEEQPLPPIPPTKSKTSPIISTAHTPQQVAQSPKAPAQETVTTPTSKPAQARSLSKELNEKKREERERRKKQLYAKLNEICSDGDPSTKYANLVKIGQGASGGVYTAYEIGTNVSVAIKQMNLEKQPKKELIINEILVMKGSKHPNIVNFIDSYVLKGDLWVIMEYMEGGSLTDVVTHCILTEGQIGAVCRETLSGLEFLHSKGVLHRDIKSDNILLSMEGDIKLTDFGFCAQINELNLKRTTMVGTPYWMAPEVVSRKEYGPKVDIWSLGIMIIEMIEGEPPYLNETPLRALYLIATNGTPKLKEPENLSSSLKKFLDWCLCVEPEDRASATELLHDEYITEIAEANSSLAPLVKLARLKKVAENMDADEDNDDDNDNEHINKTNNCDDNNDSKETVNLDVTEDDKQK

[2] = target: T2, arfp2_human ARFIP2 (UniProt P53365)
T2 sequence: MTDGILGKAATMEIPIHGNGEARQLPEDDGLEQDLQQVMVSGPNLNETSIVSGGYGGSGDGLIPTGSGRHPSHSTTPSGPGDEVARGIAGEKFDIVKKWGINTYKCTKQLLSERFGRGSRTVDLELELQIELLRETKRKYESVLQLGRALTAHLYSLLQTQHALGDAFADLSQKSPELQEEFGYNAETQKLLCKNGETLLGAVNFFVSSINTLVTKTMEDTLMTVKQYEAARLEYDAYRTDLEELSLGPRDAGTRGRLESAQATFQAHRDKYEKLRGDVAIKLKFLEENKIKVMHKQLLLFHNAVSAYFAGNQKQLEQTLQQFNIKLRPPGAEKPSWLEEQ

Row | Substance | effect of a mutation on the interaction [1] | effect of a mutation on the interaction [2]
1 | Ras-related C3 botulinum toxin substrate 1 (Homo sapiens) (from UniProt P63000) G12V | increasing interaction | 
2 | Ras-related C3 botulinum toxin substrate 1 (Homo sapiens) (from UniProt P63000) T35A |  | decreasing interaction
